Measurements from patent US20260159594A1 (UNIVERSITY OF TOKYO, published 2026).

Target: T1, human IL13RA2 (human, UniProt Q14627 27-380)
T1 construct: also called interleukin 13 receptor subunit alpha 2; 13R2
T1 sequence: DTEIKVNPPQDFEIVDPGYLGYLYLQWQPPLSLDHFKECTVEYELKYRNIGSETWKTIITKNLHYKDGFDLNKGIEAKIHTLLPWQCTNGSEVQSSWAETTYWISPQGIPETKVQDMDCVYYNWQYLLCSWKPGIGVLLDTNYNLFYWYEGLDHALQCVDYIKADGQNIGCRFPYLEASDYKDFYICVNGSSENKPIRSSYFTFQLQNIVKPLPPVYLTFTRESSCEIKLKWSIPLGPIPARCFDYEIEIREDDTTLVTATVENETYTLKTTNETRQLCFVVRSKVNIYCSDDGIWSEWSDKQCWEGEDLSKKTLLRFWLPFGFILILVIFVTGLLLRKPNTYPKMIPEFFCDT
Test: flow cytometry on U87(+), H1299(+) and RPMI7951 cells; Alexa Fluor 488-labeled anti-mouse IgG secondary antibody
Description: Flow cytometry analysis was carried out using LSRFortessa (BD Biosciences).

B1: 4E6 antibody (antibody, V domains shown)
VH: EVKLEESGPGLVAPSQSLSIACTVSGFSLTRHGIHWVRQPPGKNLEWLGVIWAGGSTNYNSALMSRLSIIKDNSKSQVFLKMNSLQTVDTAMYYCARDHFDSFDYWGQGTTLTVSS
VL: DIVLTQTPAIMSASLGERVTMTCTASSSVSSSYLHWYQQKPGSSPKLWIYSTSNLASGVPLRFSGSGSGTSYSLTISSMEAEDAATYYCHQYHRSPLTFGAGTKLELKR
notes: also called anti-IL13RA2 antibody; antibody produced by hybridoma NITE BP-03673
binding result: binds
